Stoichiometry N data for 1 substance are collected here from PMC2701625.

In the experiment the target is purified human hsp90 (human) (UniProt P07900). The experiment in a line: cross-linking.

For the substance “purified human hsp90 (from UniProt P07900 1-732) (natural protein)”, the stoichiometry N turned out to be 2.

As usually defined, the stoichiometry N is a count of units in the complex or per binding partner.
